Measured values: US10973880B2, “Compositions and methods for treating pulmonary hypertension” (Acceleron Pharma Inc., priority 2016, dated 2021)

T1: GDF8 (Homo sapiens, UniProt O14793)
T1 sequence (O14793 267-375): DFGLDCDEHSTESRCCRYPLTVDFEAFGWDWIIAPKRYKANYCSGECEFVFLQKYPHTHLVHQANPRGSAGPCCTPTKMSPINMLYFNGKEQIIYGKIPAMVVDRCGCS

T2: activin A (ActA) (Homo sapiens, UniProt P08476)
T2 sequence (P08476 311-426): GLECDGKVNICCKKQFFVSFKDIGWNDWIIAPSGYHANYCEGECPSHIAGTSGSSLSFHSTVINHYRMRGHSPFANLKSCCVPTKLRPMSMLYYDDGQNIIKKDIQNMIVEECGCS

T3: GDF11 (Homo sapiens, UniProt O95390)
T3 sequence (O95390 299-407): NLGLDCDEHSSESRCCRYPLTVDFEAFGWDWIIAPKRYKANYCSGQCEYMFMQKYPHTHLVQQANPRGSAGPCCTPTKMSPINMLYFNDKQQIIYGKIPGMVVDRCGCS


How the values were obtained:
[1] = system: rat model of pulmonary arterial hypertension (PAH), monocrotaline (MCT) induced; assay: monocrotaline rat model of pulmonary arterial hypertension; assay type: in vivo, Sprague Dawley rats
Method: The effects of an ActRIIA-mFc fusion protein (ActRIIA-mFc homodimer as described in Example 1), an ALK4-Fc-ActRIIB-Fc heterodimer (as described in Examples 12 and 13), and sildenafil (a phosphodiesterase-5 inhibitor approved for the treatment of PAH) were examined in a rat model of pulmonary arterial hypertension (PAH). In this model, Sprague Dawley rats received a […] injection of monocrotaline (MCT) to induce PAH 24 hours prior to start of therapy.
Rats were separated into different treatment groups (10 mice per group): 1) treatment with MCT (60 mg/kg administered i.p. as a single dose at day 1 of study) and Tris buffered saline (i.p. as 1 ml/kg, every three days) (vehicle treatment group), 2) treatment with an ActRIIA-mFc polypeptide (10 mg/kg administered i.p. every three days) and MCT (60 mg/kg administered i.p. as a single dose at day 1 of study), 3) treatment with an ALK4-Fc:ActRIIB-Fc heterodimer (10 mg/kg administered i.p. every three days) and MCT (60 mg/kg administered i.p. as a single dose at day 1 of study), 4) treatment with sildenafil (30 mg/kg administered orally twice daily) and MCT (60 mg/kg administered i.p. as a single dose at day 1 of study), and 5) control rats (Tris buffered saline administered i.p. as 1 ml/kg, every three days). Rats were treated for 28 days. Body weights were recorded prior to first dose on Day 1 and then weekly throughout the study.
On day 28, rats were anesthetized by an intraperitoneal injection of ketamine/xylazine (80/10 mg/kg). An incision was made in the neck, and a jugular vein was isolated and ligated anteriorly. A fluid-filled pressure catheter was introduced into the right jugular vein to measure pulmonary artery pressure (PAP). Another incision was made in the inguinal region, and femoral artery was isolated and ligated anteriorly. A Millar pressure catheter was introduced into a femoral artery to measure systolic arterial pressure, diastolic pressure, and heart rate. Mean arterial pressure and right PAP were monitored using the Notocord HEM (Croissy sur Seine, Frnace) v3.5 data capture system for approximately 5-10 minutes until stable measurements were obtained. During the measurements, rats were maintained at approximately 37° C. on a heating pad and body temperature was monitored throughout the procedure with a rectal temperature probe. At the conclusion of the procedure, rats were euthanized, and the hearts and lungs were removed. The entire heart was weighed. Next, the atria were removed and the left ventricle with septum (LV+S) was separated from the right ventricle (RV). The ventricles were weighed separately. Hypertrophy was assessed, in part, by calculating RV/LV+S. The lungs were also weighed.
Similar trends were observed on vessel muscularity based on histopathologic scoring. After staining tissue samples to detect αSMA/elastin, 100 pulmonary arterioles, between 10 μm and 50 μm in size, per animal were categorized as non-muscularized, partially muscularized, or completely muscularized. Pulmonary arterioles from vehicle treated rats were determined to be 62.3% completely muscularized, 36.4% partially muscularized, and 1.4% non-muscularized. […] Histopathological scoring of smooth muscle hypertrophy of pulmonary arterioles were also recorded as follows: 0 (normal), 1 (minimal), 2 (mild), 3 (moderate), or 4 (marked).

GDF8 = target: T1, GDF8; assay: Biacore assay, receptor captured with anti-hFc antibody; assay type: binding
Method: Binding of certain ActRIIB-Fc proteins and GDF traps to ligands was tested in a Biacore assay.
The ActRIIB-Fc variants or wild-type protein were captured onto the system using an anti-hFc antibody. Ligands were injected and flowed over the captured receptor proteins.

activin A (ActA) = target: T2, activin A (ActA); conditions: reproduced from WO2006/012627; cited from earlier work
GDF11 = target: T3, GDF11; conditions: reproduced from WO2006/012627; cited from earlier work

Molecule | ActA binding relative to WT (activin A (ActA)) | GDF11 binding relative to WT (GDF11) | further results
CCCc1nn(C)c2c(=O)[nH]c(-c3cc(S(=O)(=O)N4CCN(C)CC4)ccc3OCC)nc12 [sildenafil, reference compound] | – | – | smooth muscle hypertrophy of pulmonary arterioles, average histopathological score ([1]; 0 normal, 1 minimal, 2 mild, 3 moderate, 4 marked): 3 score; improvement in body weight ([1]; 28 days, compared to monocrotaline treated rats, proteins 10 mg/kg i.p. every three days, sildenafil 30 mg/kg orally twice daily): did not have any improvement
ActRIIB(K74A 20-134)-hFc: ActRIIB(20-134)-hFc variant with K74A mutation (protein) GRGEAETRECIYYNANWELERTNQSGLERCEGEQDKRLHCYASWRNSSGTIELVAKGCWLDDFNCYDRQECVATEENPQVYFCCCEGNFCNERFTHLPEAGGPEVTYEPPPTAPTGGGTHTCPPCPAPELLGGPSVFLFPPKPKDTLMISRTPEVTCVVVDVSHEDPEVKFNWYVDGVEVHNAKTKPREEQYNSTYRVVSVLTVLHQDWLNGKEYKCKVSNKALPVPIEKTISKAKGQPREPQVYTLPPSREEMTKNQVSLTCLVKGFYPSDIAVEWESNGQPENNYKTTPPVLDSDGSFFLYSKLTVDKSRWQQGNVFSCSVMHEALHNHYTQKSLSLSPGK | – | – | Koff, GDF8 (GDF8): 2.03e-05 s⁻¹
+15tail: soluble ActRIIB-Fc variant labelled +15tail (WO2006/012627) (protein, left off: a dimerising Fc or GST) SGRGEAETRECIYYNANWELERTNQSGLERCEGEQDKRLHCYASWANSSGTIELVKKGCWLDDFNCYDRQECVATEENPQVYFCCCEGNFCNERFTHLPEAGGPEVTYEPPPTAPT | (+++) (~5× increased binding) | (++++) (~10× increased binding) | Kd (GDF11): 19 nM
D54A: soluble ActRIIB-Fc variant D54A (protein, left off: a dimerising Fc or GST) SGRGEAETRECIYYNANWELERTNQSGLERCEGEQAKRLHCYASWANSSGTIELVKKGCWLDDFNCYDRQECVATEENPQVYFCCCEGNFCNERFTHLPEA | − (~1/2 WT binding) | – | –
K74Y: soluble ActRIIB-Fc variant K74Y (protein, left off: a dimerising Fc or GST) SGRGEAETRECIYYNANWELERTNQSGLERCEGEQDKRLHCYASWANSSGTIELVYKGCWLDDFNCYDRQECVATEENPQVYFCCCEGNFCNERFTHLPEA | – | −− (<1/5 WT binding) | –
K74I: soluble ActRIIB-Fc variant K74I (protein, left off: a dimerising Fc or GST) SGRGEAETRECIYYNANWELERTNQSGLERCEGEQDKRLHCYASWANSSGTIELVIKGCWLDDFNCYDRQECVATEENPQVYFCCCEGNFCNERFTHLPEA | – | −− (<1/5 WT binding) | –
F82A: soluble ActRIIB-Fc variant F82A (protein, left off: a dimerising Fc or GST) SGRGEAETRECIYYNANWELERTNQSGLERCEGEQDKRLHCYASWANSSGTIELVKKGCWLDDANCYDRQECVATEENPQVYFCCCEGNFCNERFTHLPEA | ++ (<2× increased binding) | − (~1/2 WT binding) | –
WT (64R): soluble ActRIIB-Fc, wild type with arginine at position 64 (WO2006/012627) (protein, left off: a dimerising Fc or GST) SGRGEAETRECIYYNANWELERTNQSGLERCEGEQDKRLHCYASWRNSSGTIELVKKGCWLDDFNCYDRQECVATEENPQVYFCCCEGNFCNERFTHLPEA | – | (+++) (~5× increased binding) | –
K74A: soluble ActRIIB-Fc variant K74A (WO2006/012627 table) (protein, left off: a dimerising Fc or GST) SGRGEAETRECIYYNANWELERTNQSGLERCEGEQDKRLHCYASWANSSGTIELVAKGCWLDDFNCYDRQECVATEENPQVYFCCCEGNFCNERFTHLPEA | +++++ (~40× increased binding) | +++++ (~40× increased binding) | –
D80I: soluble ActRIIB-Fc variant D80I (protein, left off: a dimerising Fc or GST) SGRGEAETRECIYYNANWELERTNQSGLERCEGEQDKRLHCYASWANSSGTIELVKKGCWLIDFNCYDRQECVATEENPQVYFCCCEGNFCNERFTHLPEA | – | −− (<1/5 WT binding) | –
WT (64A): soluble ActRIIB-Fc, wild type with alanine at position 64 (WO2006/012627) (protein, left off: a dimerising Fc or GST) SGRGEAETRECIYYNANWELERTNQSGLERCEGEQDKRLHCYASWANSSGTIELVKKGCWLDDFNCYDRQECVATEENPQVYFCCCEGNFCNERFTHLPEA | (+) (WT) | (+) (WT) | –
R40A: soluble ActRIIB-Fc variant R40A (protein, left off: a dimerising Fc or GST) SGRGEAETRECIYYNANWELEATNQSGLERCEGEQDKRLHCYASWANSSGTIELVKKGCWLDDFNCYDRQECVATEENPQVYFCCCEGNFCNERFTHLPEA | − (~1/2 WT binding) | − (~1/2 WT binding) | –
K55A: soluble ActRIIB-Fc variant K55A (protein, left off: a dimerising Fc or GST) SGRGEAETRECIYYNANWELERTNQSGLERCEGEQDARLHCYASWANSSGTIELVKKGCWLDDFNCYDRQECVATEENPQVYFCCCEGNFCNERFTHLPEA | ++ (<2× increased binding) | – | –
L79A: soluble ActRIIB-Fc variant L79A (protein, left off: a dimerising Fc or GST) SGRGEAETRECIYYNANWELERTNQSGLERCEGEQDKRLHCYASWANSSGTIELVKKGCWADDFNCYDRQECVATEENPQVYFCCCEGNFCNERFTHLPEA | + (WT) | – | –
K74F: soluble ActRIIB-Fc variant K74F (protein, left off: a dimerising Fc or GST) SGRGEAETRECIYYNANWELERTNQSGLERCEGEQDKRLHCYASWANSSGTIELVFKGCWLDDFNCYDRQECVATEENPQVYFCCCEGNFCNERFTHLPEA | – | −− (<1/5 WT binding) | –
